B1: Azoarcus group I ribozyme (parent)
chain: GUGCCUUGCGCCGGGAAACCACGCAAGGGAUGGUGUCAAAUUCGGCGAAACCUAAGCGCCCGCCCGGGCGUAUGGCAACGCCGAGCCAAGCUUCGGCGCCUGCGCCGAUGAAGGUGUAGAGACUAGACGGCACCCACCUAAGGCAAACGCUAUGGUGAAGGCAUAGUCCAGGGAGUGGCGAAAGUCACACAAACCGG

Variants of B1 are the subject of this series. The series can be described thus: reverse-splicing fitness (ratio to wild type); higher = more active; in vitro selection; Mg2+ level not given. The method, boiled down:
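An in vitro group I ribozyme library with randomized positions was T7-transcribed and gel-purified. In triplicate, 10 pmol RNA in EPPS pH 7.5 was reacted with 50 pmoles of a 30-nt RNA substrate for 1 h at 37 °C across several added MgCl2 levels (1–48 mM), then stopped with EDTA. Products were reverse transcribed from a substrate-complementary primer, PCR-amplified and sequenced (HiSeq 4000). Fitness is a variant's read proportion after selection over that before, normalised to wild type.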
On to A111C A145U C150U C169U U176C, for which the reverse-splicing fitness amounted to 0.0241.
Consider A111C A145U C150U C169U U176A, for which the reverse-splicing fitness is 0.0264.
The same measure for A111C A145U C150U C169U U176G: 0.00764; for A111G A120C A145C C150G U176C: 0.0508; for A111G A120C A145C C150G U176A: 0.0148.
As for A111G A120C A145C C150G U176G, the reverse-splicing fitness is 0.00421.
The same measure for A111C C150U C169U U176A: 0.0241; for A111C C150U C169U U176G: 0.00793; for A111C C150U C169U U176C: 0.0245.
On to A111C A145U C169A, for which the reverse-splicing fitness stood at 0.0348.
As for A111C A145U C169U, the reverse-splicing fitness came to 0.116.
For A111C A145U C169G the value was 0.071; for A111G A120C A145C C150A C169A U176C, 0.0045.
The same measure for A111G A120C A145C C150A C169A U176G: 0.00443; for A111G A120C A145C C150A C169A U176A: 0.00728; for A111C A145G C169U U176A: 0.0269.
Take A111C A145G C169U U176G: the reverse-splicing fitness worked out at 0.00717.
In the case of A111C A145G C169U U176C, the reverse-splicing fitness worked out at 0.0294.
The same measure for A111C A145U C150U C169A U176G: 0.00758; for A111C A145U C150U C169A U176A: 0.0122; for A111C A145U C150U C169A U176C: 0.0129.
Take A111C A145G C150A C169G: the reverse-splicing fitness was 0.0154.
The same measure for A111C A145G C150A C169U: 0.0232.
For A111C A145G C150A C169A the value was 0.0128; for A111G A120C A145C C150A U176C, 0.0404.
The same measure for A111G A120C A145C C150A U176A: 0.0376.
Consider A111G A120C A145C C150A U176G, for which the reverse-splicing fitness stood at 0.0123.
For A111C C150A C169U, the reverse-splicing fitness turned out to be 0.019.
For A111C C150A C169G the value was 0.0124; for A111C C150A C169A, 0.0113; for A111C C150A U176A, 0.12.
For A111C C150A U176C the value was 0.147; for A111C C150A U176G, 0.0531.
For A111G A120C A145C C150G C169U U176A the value was 0.00771; for A111G A120C A145C C150G C169U U176C, 0.0127; for A111G A120C A145C C150G C169U U176G, 0.0038.
As to A111G A120C A145G C150G C169U U176C, the reverse-splicing fitness was determined as 0.0116.
Consider A111G A120C A145G C150G C169U U176A, for which the reverse-splicing fitness was 0.00706.
Take A111G A120C A145G C150G C169U U176G: the reverse-splicing fitness worked out at 0.00458.
For A111G A120C A145C C150A C169A the value was 0.00705; for A111G A120C A145C C150A C169G, 0.00815.
The same measure for A111G A120C A145C C150A C169U: 0.0193; for A111C A145G C150A C169U U176G: 0.00843; for A111C A145G C150A C169U U176A: 0.0185.
For A111C A145G C150A C169U U176C, the reverse-splicing fitness worked out at 0.019.
For the variant A111C C150U C169A U176G, the reverse-splicing fitness was determined as 0.00796.
In the case of A111C C150U C169A U176A, the reverse-splicing fitness was found to be 0.0164.
With A111C C150U C169A U176C, the reverse-splicing fitness was 0.0136.
The same measure for A111C A145C C169U U176C: 0.0254; for A111C A145C C169U U176A: 0.0278; for A111C A145C C169U U176G: 0.00694.
For A111G A120C A145G C150U C169G U176C the value was 0.0192; for A111G A120C A145G C150U C169G U176A, 0.0195; for A111G A120C A145C C169G, 0.0105.
Regarding A111G A120C A145C C169U, the reverse-splicing fitness was 0.223.
With A111G A120C A145C C169A, the reverse-splicing fitness was determined as 0.0128.
For A111G A120C A145G C150A C169A the value was 0.0114; for A111G A120C A145G C150A C169U, 0.0508.
The same measure for A111G A120C A145G C150A C169G: 0.0108; for A111C C169G U176A: 0.0217.
Turning to A111C C169G U176C, the reverse-splicing fitness was determined as 0.0355.
The same measure for A111C C169G U176G: 0.00725; for A111G A120C A145C C150A C169G U176C: 0.00982.
The same measure for A111G A120C A145C C150A C169G U176A: 0.0185; for A111G A120C A145C C150A C169G U176G: 0.00452; for A111C A145G C150U C169A U176A: 0.0141.
For A111C A145G C150U C169A U176G, the reverse-splicing fitness was 0.00725.
Take A111C A145G C150U C169A U176C: the reverse-splicing fitness amounted to 0.0152.
On to A111C C150G C169U, for which the reverse-splicing fitness worked out at 0.0134.
For A111C C150G C169G the value was 0.00897.
For A111C C150G C169A the value was 0.00834; for A111C A145U C169U U176C, 0.0282.
For A111C A145U C169U U176G the value was 0.00798; for A111C A145U C169U U176A, 0.0258.
With A111C C150G U176G, the reverse-splicing fitness worked out at 0.0131.
For A111C C150G U176A the value was 0.0504; for A111C C150G U176C, 0.0763.
For A111G A120C A145C C150G C169G U176A the value was 0.00746; for A111G A120C A145C C150G C169G U176G, 0.0036; for A111G A120C A145C C150G C169G U176C, 0.00487.
Take A111G A120C A145C C169G U176A: the reverse-splicing fitness is 0.0167.
For A111G A120C A145C C169G U176C the value was 0.00881; for A111G A120C A145C C169G U176G, 0.00352.

(Values after the RNAGym collection of RNA variant scans (doi:10.1093/molbev/msab373).)
